Among the data in paper PMC9010756 are fold stronger binding than larger fragments values, retold here.

For the assay, the target named is GST-CGN(1–70) (GST-tagged cCGN, 1–70 amino acids) (canis (dog)). The experiment in a line: pull-down.
Chain of GST-CGN(1–70) (GST-tagged cCGN, 1–70 amino acids) (canis (dog)) (A7YH32 1-70): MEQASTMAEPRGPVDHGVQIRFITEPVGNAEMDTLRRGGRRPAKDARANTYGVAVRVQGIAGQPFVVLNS

Substance “GFP-hZO-1-Cter (1619–1748) (from UniProt Q07157 1619-1748) (domain or fragment)” came in with a fold stronger binding than larger fragments of over 4 fold.
